Assay results as given in the supplement of paper PMC10567573.

B1: RHOBTB3 (parent)
chain: KVVEAHKIVLCAVSHVFMLLFNVK
B2: P2RY14 (parent)
chain: KLLSVIVWMLMLLLAVPNIILTNQ

Variants of: B1
Test: protein stability index of a GFP-peptide fusion (GPS, HEK-293T) (PSI 1-6); higher = more stable
Conditions: c terminus: a fixed tail appended
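Further: lentivirally expressed fusions sorted by FACS into six bins by GFP to DsRed ratio, PSI derived from sequencing read proportions per bin multiplied by bin number.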

Protein stability index, by site and new letter:
L10: D 2.5 | T 3.3 | F 2.66 | E 2.73 | V 3.3 | S 3.43 | I 2.64 | G 3.06 | R 1.64 | A 1.75 | K 2.13 | W 1.55 | P 1.82 | Y 3.18 | N 3.5
V13: C 3.14 | G 2.42 | E 2.5 | A 1.41 | H 2.36 | K 3.18 | I 2.66
C11: W 2.66 | S 1.98 | F 1.94 | A 2.85 | M 2.26 | G 2.26 | D 2.13 | P 2.8 | N 1.88 | L 2.24 | Q 2.37 | R 1.98 | V 3.24 | I 4.05 | H 4.45 | E 1.86 | T 1.99 | K 1.75
V9: T 2.47 | E 2.79 | M 2.83 | F 2.7 | S 3.31 | A 1.87 | I 2.87 | R 3.25 | L 3.24 | Q 2.73 | G 2.12 | D 2.67 | C 2.32 | W 3.46 | K 3.01 | P 2.36 | Y 1.64 | H 2.71
E4: Q 2.23 | T 2.53 | M 2.54 | H 2.69 | P 2.37 | R 2.69 | K 3.02 | L 2.08 | I 2.78 | A 2.24 | W 1.42 | D 2.33 | C 2.67 | F 2.23 | S 1.9 | V 2.79 | Y 2.75
I8: W 3.31 | N 1.89 | D 2.04 | A 2.45 | C 2.2 | M 3.3 | E 1.98 | P 2.29 | F 2.48 | V 1.68 | K 2.59 | T 2.93 | Y 1.88 | Q 2.41 | G 2.84 | R 2.17 | H 2.52
K1: G 2.31 | Q 1.9 | S 2.46 | N 2.52 | Y 2.58 | C 3.06 | L 3.15 | R 2.68 | P 3.1 | I 2.87 | H 2.2 | D 4.55 | F 4.17 | E 3.04 | W 3.19 | T 2.71 | A 3.06
A5: Q 4.3 | V 2.48 | D 3.37 | R 3.59 | N 2.07 | S 3.05 | H 2.9 | M 3.42 | W 3.03 | C 2.77 | T 1.72 | L 1.76 | Y 3.88 | E 3.14 | K 2.58 | F 2.45 | G 3.1 | P 3.11
H6: E 2.21 | P 2.4 | K 2.65 | T 1.79 | L 1.75 | N 3.4 | F 2.13 | V 1.77 | I 1.85 | Q 1.5 | G 1.84 | S 1.92 | R 3.29 | M 1.63 | A 1.84 | W 2.24 | C 2.58
V3: Y 2.53 | C 2.3 | S 2.39 | R 2.02 | I 3.11 | P 3.35 | T 2.36 | M 3.1 | G 2.38 | K 3.12 | E 1.82 | N 3.87 | L 2.09 | F 3.62 | Q 3.48 | D 2.2
K7: C 1.83 | V 2.31 | S 2.01 | N 2.31 | E 2.9 | T 2.64 | Q 3 | L 2.74 | G 2.79 | M 2.93 | Y 3.35 | P 2.02 | W 2.34 | R 2.65 | A 3.36 | D 3.98 | F 2.99
A12: I 1.96 | R 2.33 | L 3.63 | M 2.2 | D 3.75 | P 2.73 | F 2.55 | V 2.57 | H 2.83 | K 2.92 | T 1.6 | E 2.31 | Q 2.37 | S 2.78 | C 2.29 | Y 2.46 | N 3.15 | G 2.92
V2: I 3.58 | S 3.24 | G 2.64 | T 2.6 | K 1.62 | C 2.18 | A 2.96 | L 2.32 | D 2.57 | P 3.44 | F 2.5 | Q 2.04 | Y 1.86 | E 2.64 | N 2.44 | M 2.9

Variants of: B2
Test: as above
Conditions: c terminus: a fixed tail appended

Protein stability index: each site, then its substitutions
I19: A 3.24 | Q 1.89 | M 1.29 | K 1.76 | T 3.06 | N 3.66 | F 2.98 | P 3.43 | R 2.2 | D 2.8 | Y 3.02 | S 2.07
I20: F 2.73 | A 2.31 | E 3.69 | V 2.79 | S 3.35 | L 2.52 | C 1.86 | K 3.1 | P 4.08 | Y 3.09 | D 3.27 | N 2.31
Q24: W 2.33 | G 2.91 | E 2.74 | D 4.62 | K 2.6 | L 3.08 | R 3.28 | V 1.96 | I 2.79 | P 2.59 | T 2.81 | C 2.79 | F 2.69 | H 2.8
T22: L 2.2 | F 2.97 | Y 3.3 | H 2.69 | V 4.59 | I 2.32 | A 2.75 | S 3.96 | M 2.38 | D 4.01 | N 2.75 | W 2.92 | K 3.2
L21: S 2.57 | M 2.96 | D 2.99 | N 2.28 | P 1.98 | G 3.21 | F 2.73 | R 4.98 | C 3.7 | A 3.89 | I 3.12 | T 3.22 | H 2.2 | E 2.6
P17: S 3.12 | K 3.35 | F 2.69 | W 1.98 | C 2.41 | H 2.96 | R 2.8 | G 3.39 | M 1.52 | Y 1.54 | I 1.95 | V 1.23 | T 2.4 | Q 2.82 | E 3 | L 2.97 | D 2.68 | N 2.08 | A 2.56
V16: M 3.43 | Q 3.43 | L 3.59 | P 2.75 | I 3.43 | H 2.06 | T 2.01 | S 2.89 | N 3.98
N23: H 3.59 | M 2.42 | E 3.67 | Y 2.21 | C 2.15 | K 2.45 | R 1.92 | V 2.99 | I 1 | T 2.97 | F 2.98 | A 2.34 | W 2.57 | G 2.54 | D 3.86
N18: W 1.92 | V 1.58 | I 2.63 | P 2.78 | F 2.16 | G 3.62 | A 1.99 | R 1.49 | Y 2.09 | C 2.1 | T 2.89 | H 3.81 | K 2.59 | L 1.65 | E 2.5
